Test results: patent US20130251703A1 (Novartis, published 2013)
Where a chain is given by its changes, count along the chain named. One block for each binder: values may come before it.

What was measured:
[1] = biological target: T1, Mu HER3: CD33-[Murine HER3, residues 20-643]-TAG (mouse, UniProt Q61526 20-643); test: solution equilibrium titration (SET), IgG, ECL read-out
T1 construct: also called mu HER3-Tag; not shown: C-terminal TAG (e.g. FLAG TAG)

[2] = biological target: T2, Hu HER3: CD33-[Human HER3, residues 20-640]-TAG (human, UniProt P21860 20-640); test: as above
T2 construct: also called hu HER3-Tag; HER3-Tag; not shown: C-terminal TAG (e.g. FLAG TAG)

[3] = biological target: T3, Cyno HER3: CD33-[Cyno HER3, residues 20-643]-TAG (cynomolgus monkey, UniProt G7PIG5 20-643); test: as above
T3 construct: also called cy HER3-Tag; not shown: C-terminal TAG (e.g. FLAG TAG)

[4] = biological target: T4, Rat HER3: CD33-[Rat HER3, residues 20-643]-TAG (rat, UniProt Q62799 20-643); test: as above
T4 construct: also called ra HER3-Tag; not shown: C-terminal TAG (e.g. FLAG TAG)

[5] = biological target: T5, human HER3 endogenously expressed on human cancer cells (SK-Br-3, BT-474, MCF7) (human, UniProt P21860 20-1342); test: cell-based or functional assay
[6] = biological target: T5, human HER3 endogenously expressed on …; test: cell-based or functional assay; remark: listed apart in the source
[7] = biological target: T6, HER3 D2: CD33-[Human HER3, residues 185-329]-TAG (human, UniProt P21860 185-329); test: HER3 domain binding ELISA: recombinant protein coated on the plate, antibody titrated; the y axis reads 'Fluorescence Units'
T6 construct: also called D2-Tag; domain 2; not shown: C-terminal TAG (e.g. FLAG TAG)
Experimental: (§1) All wells were then washed with PBS/0.1% Tween-20, blocked with PBS/1% BSA/0.1% Tween-20 and washed with PBS/0.1% Tween-20. Anti-HER3 antibodies were added to the relevant wells up to a final concentration of 10 μg/mL and incubated at room temperature. Plates were washed with PBS/0.1% Tween-20 prior to the addition of the appropriate peroxidase linked detection antibody diluted 1/10000 in PBS/1% BSA/0.1% Tween-20. The detection antibodies used were goat anti-mouse (Pierce, 31432), rabbit anti-goat (Pierce, 31402) and goat anti-human (Pierce, 31412). Plates were incubated at room temperature before washing with PBS/0.1% Tween-20. 100 μl TMB (3,3′,5,5′ tetramethyl benzidine) substrate solution (BioFx) was added to all wells before stopping the reaction with 50 μl 12.5% H₂SO₄. […] Where appropriate, dose response curves were analyzed using Graphpad Prism.

[8] = biological target: T7, HER3 D1-2: CD33-[Human HER3, residues 20-329]-TAG (human, UniProt P21860 20-329); test: as above
T7 construct: also called D1-2-Tag; domains 1 and 2; not shown: C-terminal TAG (e.g. FLAG TAG)
Experimental: as §1

[9] = biological target: T5, human HER3 endogenously expressed on …; test: cell-based or functional assay; remark: listed apart in the source
[10] = biological target: T5, human HER3 endogenously expressed on …; test: FACS titration of IgG on SK-Br-3 cells (endogenous HER3)
Experimental: The binding of antibodies to endogenous human antigen expressed on human cancer cells was accessed by FACS. In order to determine antibody EC₅₀ values SK-Br-3 cells were harvested with accutase and diluted to 1×10⁶ cells/mL in FACS buffer (PBS/3% FBS/0.2% NaN₃). 1×10⁵ cells/well were added to each well of a 96-well plate (Nunc) and centrifuged at 210 g for 5 minutes at 4° C. before removing the supernatant. Serial dilutions of test antibodies (diluted in 1:4 dilution steps with FACS buffer) were added to the pelleted cells and incubated for 1 hour on ice. The cells were washed and pelleted three times with […] FACS buffer. PE conjugated goat anti-human IgG (Jackson ImmunoResearch) diluted 1/200 with FACS buffer were added to the cells and incubated on ice for 1 hour. Additional washing steps were performed three times with 100 μL FACS buffer followed by centrifugation steps at 210 g for 5 minutes at 4° C. Finally, cells were resuspended in 200 μL FACS buffer and fluorescence values were measured with a FACSArray (BD Biosciences). The amount of cell surface bound anti-HER3 antibody was assessed by measuring the mean channel fluorescence.

Kd [1]: 336 pM
Kd [2]: 102 pM
Kd [3]: 257 pM
Kd [4]: 310 pM
BT-474 pAkt % inhibition [5]: 63%
BT-474 pAkt IC50 [5]: 466 pM
MCF7 pAkt % inhibition [5]: 78%
MCF7 pAkt IC50 [5]: 815 pM
SK-Br-3 pAkt % inhibition [5]: 86%
SK-Br-3 pAkt IC50 [5]: 101 pM
BT474 pHER3 % inhibition [6]: 56%
BT474 pHER3 IC50 [6]: 421 pM
MCF7 pHER3 % inhibition [6]: 75%
MCF7 pHER3 IC50 [6]: 447 pM
SK-Br-3 pHER3 % inhibition [6]: 71%
SK-Br-3 pHER3 IC50 [6]: 179 pM
binding result [7]: no binding (tested: 10 µg/ml)
binding result [8]: no binding (tested: 10 µg/ml)
BT-474 proliferation % inhibition [9]: 35%
BT-474 proliferation IC50 [9]: 459 pM
MCF7 proliferation % inhibition [9]: 42%
MCF7 proliferation IC50 [9]: 2540 pM
SK-Br-3 proliferation % inhibition [9]: 40%
SK-Br-3 proliferation IC50 [9]: 121 pM
B1: MOR12615 (antibody, human IgG1, lambda, V domains shown)
VH: QVQLVQSGAEVKKPGASVKVSCKASGYTFTSYDIHWVRQAPGQGLEWMGRIDPYSGNTNYAQKFQGRVTMTRDTSISTAYMELSRLRSEDTAVYYCARGSFYTRDSYFDVWGQGTLVTVSS
VL: DIALTQPASVSGSPGQSITISCTGTSSDVGTYNQVSWYQQHPGKAPKLMIYGVSKRPSGVSNRFSGSKSGNTASLTISGLQAEDEADYYCSSRDLIGHYVFGGGTKLTVLG
notes: Tested as IgG

Kd [1]: 23 pM
Kd [2]: 45 pM
Kd [3]: 26 pM
Kd [4]: 51 pM
MCF7 pHER3 % inhibition [6]: 83%
MCF7 pHER3 IC50 [6]: 615 pM
SK-Br-3 pHER3 % inhibition [6]: 71%
SK-Br-3 pHER3 IC50 [6]: 263 pM
SK-Br-3 proliferation % inhibition [9]: 53%
SK-Br-3 proliferation IC50 [9]: 81 pM
EC50 [10]: 279 pM
B2: MOR14538 (antibody, human IgG1, lambda, V domains shown)
VH: B1 VH with E89D
VL: B1 VL with D1Q, I2S, S91A, R93A, L95H, I96S, G97Y, Y99T
notes: Tested as IgG

Kd [1]: 220 pM
Kd [2]: 210 pM
Kd [3]: 140 pM
Kd [4]: 285 pM
MCF7 pHER3 % inhibition [6]: 73%
MCF7 pHER3 IC50 [6]: 200 pM
SK-Br-3 pHER3 % inhibition [6]: 69%
SK-Br-3 pHER3 IC50 [6]: 97 pM
SK-Br-3 proliferation % inhibition [9]: 48%
SK-Br-3 proliferation IC50 [9]: 47 pM
EC50 [10]: 179 pM
B3: MOR14537 (antibody, human IgG1, lambda, V domains shown)
VH: B1 VH with E89D
VL: QSALTQPASVSGSPGQSITISCTGTSSDVGTYNQVSWYQQHPGKAPKLMIYGVSKRPSGVSNRFSGSKSGNTASLTISGLQAEDEADYYCSSATQKPDVTVFGGGTKLTVLG
notes: Tested as IgG

Kd [1]: 2300 pM
Kd [2]: 1800 pM
Kd [3]: 2900 pM
Kd [4]: 9600 pM
BT-474 pAkt % inhibition [5]: 67%
BT-474 pAkt IC50 [5]: 173 pM
MCF7 pAkt % inhibition [5]: 76%
MCF7 pAkt IC50 [5]: 533 pM
SK-Br-3 pAkt % inhibition [5]: 84%
SK-Br-3 pAkt IC50 [5]: 140 pM
BT474 pHER3 % inhibition [6]: 64%
BT474 pHER3 IC50 [6]: 1490 pM
MCF7 pHER3 % inhibition [6]: 89%
MCF7 pHER3 IC50 [6]: 318 pM
SK-Br-3 pHER3 % inhibition [6]: 73%
SK-Br-3 pHER3 IC50 [6]: 7 pM
MCF7 proliferation % inhibition [9]: 45%
MCF7 proliferation IC50 [9]: 28 pM
SK-Br-3 proliferation % inhibition [9]: 29%
SK-Br-3 proliferation IC50 [9]: 0.01 pM
B4: MOR12605 (antibody, human IgG1, kappa, V domains shown)
VH: QVQLVQSGAEVKKPGSSVKVSCKASGGTFSSYAISWVRQAPGQGLEWMGLIIPRYGKARYAQKFQGRVTITADESTSTAYMELSSLRSEDTAVYYCARNWPYYYMDFWGQGTLVTVSS
VL: DIVLTQSPATLSLSPGERATLSCRASQNIVFNLAWYQQKPGQAPRLLIYDASNRATGVPARFSGSGSGTDFTLTISSLEPEDFAVYYCQQFRRKSNTFGQGTKVEIKR
notes: Tested as IgG

Kd [1]: 1400 pM
Kd [2]: 1500 pM
Kd [3]: 2600 pM
Kd [4]: 8100 pM
BT-474 pAkt % inhibition [5]: 77%
BT-474 pAkt IC50 [5]: 91 pM
SK-Br-3 pAkt % inhibition [5]: 85%
SK-Br-3 pAkt IC50 [5]: 8 pM
BT474 pHER3 % inhibition [6]: 73%
BT474 pHER3 IC50 [6]: 108 pM
MCF7 pHER3 % inhibition [6]: 87%
MCF7 pHER3 IC50 [6]: 34 pM
SK-Br-3 pHER3 % inhibition [6]: 75%
SK-Br-3 pHER3 IC50 [6]: 25 pM
BT-474 proliferation % inhibition [9]: 40%
BT-474 proliferation IC50 [9]: 127 pM
MCF7 proliferation % inhibition [9]: 39%
MCF7 proliferation IC50 [9]: 52 pM
SK-Br-3 proliferation % inhibition [9]: 36%
B5: MOR12606 (antibody, human IgG1, kappa, V domains shown)
VH: B4 VH
VL: DIVLTQSPATLSLSPGERATLSCRASQNIVFNLAWYQQKPGQAPRLLIYDASNRATGVPARFSGSGSGTDFTLTISSLEPEDFAVYYCQQTKSKPSPTFGQGTKVEIKR
notes: Tested as IgG

Kd [1]: 4000 pM
Kd [2]: 2150 pM
Kd [3]: 6350 pM
Kd [4]: 30000 pM
MCF7 pHER3 % inhibition [6]: 71%
MCF7 pHER3 IC50 [6]: 16 pM
SK-Br-3 pHER3 % inhibition [6]: 63%
SK-Br-3 pHER3 IC50 [6]: 10 pM
SK-Br-3 proliferation % inhibition [9]: 40%
SK-Br-3 proliferation IC50 [9]: 27 pM
EC50 [10]: 28 pM
B6: MOR14534 (antibody, human IgG1, kappa, V domains shown)
VH: B4 VH
VL: B4 VL with D1E, V58I, F91T, R92K, R93N, K94R, S95P, N96P
notes: Tested as IgG

Kd [1]: 2000 pM
Kd [2]: 640 pM
Kd [3]: 2950 pM
Kd [4]: 9650 pM
MCF7 pHER3 % inhibition [6]: 67%
MCF7 pHER3 IC50 [6]: 50 pM
SK-Br-3 pHER3 % inhibition [6]: 68%
SK-Br-3 pHER3 IC50 [6]: 20 pM
SK-Br-3 proliferation % inhibition [9]: 46%
SK-Br-3 proliferation IC50 [9]: 26 pM
EC50 [10]: 42 pM
B7: MOR14533 (antibody, human IgG1, kappa, V domains shown)
VH: B4 VH
VL: B5 VL with D1E, V58I
notes: Tested as IgG
